Measured values as given in US10954275.
Substitutions are numbered along the chain they refer to. In names and notes the source's numbering stands.

B1: Protein G EHHE C2 domain (PrG-EHHE; A24E, K28H, V29H, N35E), displayed on the yeast cell surface (designed binder, not shown: large carriers)
chain: TTYKLVINGKTLKGETTTEAVDAETAEHHFKQYAEDNGVDGEWTYDDATKTFTVTE
B2: Protein G EHHD C2 domain (PrG-EHHD; A24E, K28H, V29H, N35D), displayed on the yeast cell surface (designed binder, not shown: large carriers)
chain: B1 chain with E35D
B3: Protein G EHH C2 domain (PrG-EHH; A24E, K28H, V29H), displayed on the yeast cell surface (designed binder, not shown: large carriers)
chain: B1 chain with E35N
B4: Protein G ERH C2 domain (PrG-ERH; A24E, K28R, V29H), displayed on the yeast cell surface (designed binder, not shown: large carriers)
chain: B1 chain with H28R, E35N

Tests used:
[1] = biological target: AlexaFluor 647-conjugated human IgG (Jackson Immuno Research) (human); experiment: flow cytometry, IgG titration on yeast-displayed PrG, pH 8.2 against pH 5.6
[2] = biological target: AlexaFluor 647-conjugated human IgG (Jackson Immuno Research) (human); experiment: flow cytometry on yeast-displayed PrG, ~200 nM IgG, pH 5.6
[3] = biological target: AlexaFluor 647-conjugated human IgG (Jackson Immuno Research) (human); experiment: flow cytometry on yeast-displayed PrG, ~200 nM IgG, pH 8.2
[4] = biological target: AlexaFluor 647-conjugated human IgG (Jackson Immuno Research) (human); experiment: flow cytometry on yeast-displayed PrG with labelled human IgG at pH 5.6 and pH 8.2 (FIG. 6)
[5] = biological target: AlexaFluor 647-conjugated human IgG (Jackson Immuno Research) (human); experiment: flow cytometry, titration of AlexaFluor 647 human IgG on yeast-displayed PrG, pH 5.6
[6] = biological target: AlexaFluor 647-conjugated human IgG (Jackson Immuno Research) (human); experiment: flow cytometry, titration of AlexaFluor 647 human IgG on yeast-displayed PrG, pH 8.2
[7] = biological target: AlexaFluor 647-conjugated human IgG (Jackson Immuno Research) (human); experiment: flow cytometry on yeast-displayed PrG with labelled human IgG (FIG. 6), against WT PrG

Binder | fold change in binding constant, pH 5.6 to pH 8.2 [1] [fold] | Percent IgG bound at IgG concentration of ~200 nM [2] [%] | Percent IgG bound at IgG concentration of ~200 nM [3] [%] | fold increase of the pH dependent switch [4] [fold] | Kd [5] [nM] | Kd [6] [nM] | fold increase of IgG binding affinity [7] [fold]
B1 | 40 | 80 | 10 | > 2 | 27 | 1170 | 
B2 | 20 | 65 | 7 |  | 96 | 1780 | 
B3 |  |  |  |  |  |  | > 4
B4 |  |  |  |  |  |  | > 4
